From publication PMC7857395 (2020) come the findings set out here.

In the test the target is SARS-CoV-2 S receptor-binding domain (RBD) (SARS-CoV-2, UniProt P0DTC2). The experiment in a line: SPR.

B1: S2E12 Fab fragment (Fab, V domains shown)
VH: not shown
VL: DIVLTQTPGTLSLSPGERATLSCRASQSVSSSYLAWYQQKPGQAPRLLIYGASSRATGIPDRFSGSGSGTDFTLTISRLEPEDFAVYYCQQYVGLTGWTFGQGTKVEIK
In turn, B1 came in with a Kd of 1.6 nM. This lies in the single-digit nanomolar range.

B2: S2M11 Fab fragment (Fab, V domains shown)
VH: EVQLVQSGAEVKKPGASVKVSCKASGYTFTGYYMHWVRQAPGQGLEWMGWINPISSGTSYAQTFQGRVTMTSDTSITTAYMELSRLRSDDTAVYYCARAAPFYDFWSGYSYFDYWGQGTLVTVSS
VL: not shown
Regarding B2, binding was characterised by a dissociation constant (Kd) of 66 nM.
